Test results taken from patent US20210162067A1, “Composition and Methods of Controllable Co-Coupling Polypeptide Nanoparticle Delivery System for Nucleic Acid Therapeutics” (SIRNAOMICS, INC., priority 2018, published 2021).
No end group written: not given here.

Assay type: physicochemical
Method: The structure of the HKC2 was characterized by HPLC and mass spectroscopy, and a major peak at retention time at 8.053 min with a purity 90.0% was observed by RPHPLC. In the ESI-MS spectrum (FIG. 2B), a molecular ion peak was observed as double charged ion [M+2H]^2+. Similarly, triple charged, 4+ and 5+ species were also observed. It provided a molecular weight of 2683 Da, which is in good agreement with the theoretical value. […] This is a plus for its formulation with the siRNA in aqueous medium.

K(HHHK)4CSSC (KHHHKHHHKHHHKHHHKCSSC; also: branched peptide, cross-linked through intermolecular disulfide bonds between cysteines into polymer (HKC2))
solubility in water: readily soluble in water
